The text below walks through data of the supplement of paper PMC10567573.

± gives the standard deviation.

This series in a line: protein stability index of a GFP-peptide fusion (GPS, HEK-293T) (PSI 1-6); higher = more stable. Particulars: c terminus: a fixed tail appended.
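Note: 24-mer peptide tiles fused after GFP, lentivirally expressed, FACS-sorted into six equal bins by GFP/DsRed ratio, decoded by Illumina sequencing, PSI is the read-weighted mean bin number.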

As for LVTYTNRYIIFKRNTLNQPCSGSV [GMCL1], the protein stability index (treatment: DMSO) was found to be 2.29 ± 0.24 and the protein stability index (treatment: MLN4924 1 uM, 8 h) came to 2.07 ± 0.2.

As to LYFATLRNRPKSTVNTHYFSIDEE [CDC14A], the protein stability index stood at 2.11 ± 0.17 (treatment: DMSO) and 2.15 ± 0.32 (treatment: MLN4924 1 uM, 8 h).

Take LYIFATCLGLSYDGLLGDNQIMPK [MAGEA3]: the protein stability index was found to be 2.92 ± 0.34 (treatment: DMSO) and 2.78 ± 0.52 (treatment: MLN4924 1 uM, 8 h).

Take MARLQEEHGDQLLSIRCQHQEQVE [MTUS2]: the protein stability index runs as follows: (treatment: DMSO) 4.85 ± 0.38; (treatment: MLN4924 1 uM, 8 h) 4.96 ± 0.11.

As for MASFPPRVNEKEIVRLRTIGELLA [WSB1], the protein stability index by setting is: (treatment: DMSO) 2.18 ± 0.3; (treatment: MLN4924 1 uM, 8 h) 2.14 ± 0.13.

Consider MATTVTCTRFTDEYQLYEDIGKGA [CAMK2B], for which the protein stability index reads like this: (treatment: DMSO) 3.25 ± 0.2; (treatment: MLN4924 1 uM, 8 h) 3.31 ± 0.18.

Take MCLFLQSLRQKQPERLCSGPGIVG [GMPPB]: the protein stability index runs as follows: (treatment: DMSO) 2.27 ± 0.41; (treatment: MLN4924 1 uM, 8 h) 2.17 ± 0.46.

Regarding MCQRLRSMQYNGSYFDRGAKGGSR [DFFB], the protein stability index stood at 3.26 ± 0.26 (treatment: DMSO) and 3.48 ± 0.42 (treatment: MLN4924 1 uM, 8 h).

With MCRLEELGLAGRCLTLTPRPATEA [HDAC6], the protein stability index was determined as 2.21 ± 0.22 (treatment: DMSO) and 2.27 ± 0.095 (treatment: MLN4924 1 uM, 8 h).

MDHIRIFQEQVEKLKALHVDSAEY [NR2F2]: the protein stability index reads like this: (treatment: DMSO) 3.07 ± 0.44; (treatment: MLN4924 1 uM, 8 h) 3.2 ± 0.36.

MDSDFSHAFQKELTCVICLNYLVD [TRIM43] gave a protein stability index (treatment: DMSO) of 2.6 ± 0.39 and a protein stability index (treatment: MLN4924 1 uM, 8 h) of 2.53 ± 0.44.

Regarding MDVGETAMVTADSKYCYGPQGSRS [FKBP8], the protein stability index by setting is: (treatment: DMSO) 4.36 ± 0.31; (treatment: MLN4924 1 uM, 8 h) 4.51 ± 0.23.

Regarding MEAAREGHEEMVALLLGQGANINA [ANKRD17], the protein stability index came to 4.16 ± 0.17 (treatment: DMSO) and 4.15 ± 0.24 (treatment: MLN4924 1 uM, 8 h).

Take MESSKPGPVQVVLVQKDQHSFELD [ATL3]: the protein stability index (treatment: DMSO) was found to be 4.35 ± 0.19 and the protein stability index (treatment: MLN4924 1 uM, 8 h) amounted to 4.04 ± 0.33.

Regarding MGFAAKAMKSVHENMDLNKIDDLM [CHMP4C], the protein stability index was 3.59 ± 0.32 (treatment: DMSO) and 3.48 ± 0.3 (treatment: MLN4924 1 uM, 8 h).

With MIGLYEPELGSGAGPAGTGTPSLL [EMID1], the protein stability index is 3.89 ± 0.53 (treatment: DMSO) and 3.65 ± 0.71 (treatment: MLN4924 1 uM, 8 h).

In the case of MKCLKVGMLKEGVRLDRVRGGRQK [ESRRG], the protein stability index runs as follows: (treatment: DMSO) 3.5 ± 0.092; (treatment: MLN4924 1 uM, 8 h) 3.73 ± 0.21.

For MKDISNLEENDETRFILSKVPSEA [SLC6A17], the protein stability index by setting is: (treatment: DMSO) 4.91 ± 0.24; (treatment: MLN4924 1 uM, 8 h) 4.94 ± 0.15.

As for MKQGGAALEGSALANGRALSAGSP [DLX1], the protein stability index by setting is: (treatment: DMSO) 4.67 ± 0.29; (treatment: MLN4924 1 uM, 8 h) 4.72 ± 0.13.

For MKSEEQKIKDARKGPLVPFPNQKS [KMT5A], the protein stability index reads like this: (treatment: DMSO) 5.01 ± 0.18; (treatment: MLN4924 1 uM, 8 h) 5.23 ± 0.19.

For the sequence MMKAKGDLEMKEEEEISETGELVG [ZBED2], the protein stability index runs as follows: (treatment: DMSO) 5.59 ± 0.27; (treatment: MLN4924 1 uM, 8 h) 5.35 ± 0.26.

For the sequence MNLDIVDLLKKAKFHHSDCLSTWL [RHOBTB3], the protein stability index was 2.53 ± 0.4 (treatment: DMSO) and 2.44 ± 0.63 (treatment: MLN4924 1 uM, 8 h).

As to MPPKKQAQAGGSKKAEQKKKEKII [ZC3H15], the protein stability index reads like this: (treatment: DMSO) 4.63 ± 0.18; (treatment: MLN4924 1 uM, 8 h) 5.1 ± 0.39.

For the sequence MPSGSEEKILRELSEEEEDEEEEE [KCNA4], the protein stability index runs as follows: (treatment: DMSO) 5.53 ± 0.59; (treatment: MLN4924 1 uM, 8 h) 5.69 ± 0.14.

In the case of MQHSFPEPGRLYLDLILAILALEL [TMEM192], the protein stability index came to 2.62 ± 0.41 (treatment: DMSO) and 2.45 ± 0.36 (treatment: MLN4924 1 uM, 8 h).

For the sequence MQVFAKLGTDPTHVMGLYPDLLPT [VPS39], the protein stability index is, setting by setting: (treatment: DMSO) 2.16 ± 0.27; (treatment: MLN4924 1 uM, 8 h) 2.35 ± 0.25.

With MSFTTRSTFSTNYRSLGSVQAPSY [KRT18], the protein stability index by setting is: (treatment: DMSO) 2.37 ± 0.29; (treatment: MLN4924 1 uM, 8 h) 2.38 ± 0.3.

Regarding MSLVLHGNNLLVFGGTGIPFGESN [KLHDC10], the protein stability index (treatment: DMSO) is 2.74 ± 0.69 and the protein stability index (treatment: MLN4924 1 uM, 8 h) was found to be 2.81 ± 0.52.

With MTTLTHRARRTEISKNSEKKMESE [GOLPH3L], the protein stability index is 5 ± 0.55 (treatment: DMSO) and 5.07 ± 0.18 (treatment: MLN4924 1 uM, 8 h).

Take MTVPATAIYFTAYDQLKAFLCGRA [SLC25A39]: the protein stability index is, setting by setting: (treatment: DMSO) 2.35 ± 0.51; (treatment: MLN4924 1 uM, 8 h) 2.23 ± 0.33.

MVATANNRQTFVNSAIRFLRKYSF [CHIT1]: the protein stability index runs as follows: (treatment: DMSO) 2.65 ± 0.19; (treatment: MLN4924 1 uM, 8 h) 2.63 ± 0.14.

Take MVIHIPEEPRPSRPRYKADVPDLQ [KCNK9]: the protein stability index amounted to 3.02 ± 0.21 (treatment: DMSO) and 3.24 ± 0.18 (treatment: MLN4924 1 uM, 8 h).

On to MVIQLLAIMCVSCICWSPFLVTMA [PTGFR], for which the protein stability index by setting is: (treatment: DMSO) 3.11 ± 0.45; (treatment: MLN4924 1 uM, 8 h) 3.22 ± 0.36.

With MVSSVLCRCVASPPPDAAATAASS [SLC25A25], the protein stability index reads like this: (treatment: DMSO) 2.94 ± 0.24; (treatment: MLN4924 1 uM, 8 h) 2.92 ± 0.22.

Regarding MYFSSLFPYVVLACFLVRGLLLRG [SLC6A17], the protein stability index by setting is: (treatment: DMSO) 2.9 ± 0.65; (treatment: MLN4924 1 uM, 8 h) 2.65 ± 0.72.

Consider MYQELMEMCHKPDVELLQDLGDIV [TRIM43], for which the protein stability index was determined as 2.57 ± 0.28 (treatment: DMSO) and 2.71 ± 0.45 (treatment: MLN4924 1 uM, 8 h).
